For the test, the target named is IL-12 receptors (human) (UniProt P42701). Nature of the test: cell-based or functional assay.

A value given as a limit tells only on which side of the number the result lay.

IL-12 receptors (human), sequence (Q99665 24-862, chain 2 of 2, other chains not shown): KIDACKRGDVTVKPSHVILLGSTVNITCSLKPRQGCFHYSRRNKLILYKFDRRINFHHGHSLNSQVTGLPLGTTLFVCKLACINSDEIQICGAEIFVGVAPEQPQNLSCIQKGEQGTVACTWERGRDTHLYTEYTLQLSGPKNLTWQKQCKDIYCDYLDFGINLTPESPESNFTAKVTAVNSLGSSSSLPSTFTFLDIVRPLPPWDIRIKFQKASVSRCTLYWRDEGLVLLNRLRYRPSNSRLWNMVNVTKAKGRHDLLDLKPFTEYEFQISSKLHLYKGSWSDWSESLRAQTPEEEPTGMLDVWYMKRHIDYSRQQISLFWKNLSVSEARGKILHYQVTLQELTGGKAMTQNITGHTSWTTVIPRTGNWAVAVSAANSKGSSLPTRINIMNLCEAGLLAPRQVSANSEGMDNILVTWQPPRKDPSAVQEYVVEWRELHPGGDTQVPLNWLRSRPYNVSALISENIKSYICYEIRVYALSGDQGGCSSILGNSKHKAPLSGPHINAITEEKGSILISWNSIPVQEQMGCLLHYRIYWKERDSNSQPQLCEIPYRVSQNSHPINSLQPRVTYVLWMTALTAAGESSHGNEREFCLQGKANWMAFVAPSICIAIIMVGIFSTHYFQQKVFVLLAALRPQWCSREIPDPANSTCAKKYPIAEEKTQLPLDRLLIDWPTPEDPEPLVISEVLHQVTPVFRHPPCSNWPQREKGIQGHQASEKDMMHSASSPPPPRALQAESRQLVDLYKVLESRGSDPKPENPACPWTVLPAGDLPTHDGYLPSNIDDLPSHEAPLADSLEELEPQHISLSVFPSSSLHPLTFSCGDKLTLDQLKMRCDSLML

With “IL-12-Fc fusion comprising IL-12p35(D55Q/N151D) (from UniProt P29460 23-328; P29459 23-219)”, the reduction in potency (EC50 for STAT4 phosphorylation) relative to WT IL-12-Fc XENP27201 came to 2 fold.

The substance “IL-12-Fc fusion comprising IL-12p35(E153Q) (from UniProt P29460 23-328; P29459 23-219)” displayed a reduction in potency (EC50 for STAT4 phosphorylation) relative to WT IL-12-Fc XENP27201 of over 2 fold.

Regarding “IL-12-Fc fusion comprising IL-12p40(E235Q) (from UniProt P29460 23-328; P29459 23-219)”, the reduction in potency (EC50 for STAT4 phosphorylation) relative to WT IL-12-Fc XENP27201 was over 2 fold.

The record behind these values is patent publication US20210355185A1.
